{
  "source": "patent US20190358326A1",
  "test_in_all_cases": "virus attachment assay at 4° C. on transfected L929 cells, immunostaining, Mander's co-localization coefficient",
  "key": {"[1]": {"target": "human P-selectin glycoprotein ligand-1 (hPSGL1) on L929 cells (human) (UniProt Q14242)", "sequence (Q14242 42-412)": "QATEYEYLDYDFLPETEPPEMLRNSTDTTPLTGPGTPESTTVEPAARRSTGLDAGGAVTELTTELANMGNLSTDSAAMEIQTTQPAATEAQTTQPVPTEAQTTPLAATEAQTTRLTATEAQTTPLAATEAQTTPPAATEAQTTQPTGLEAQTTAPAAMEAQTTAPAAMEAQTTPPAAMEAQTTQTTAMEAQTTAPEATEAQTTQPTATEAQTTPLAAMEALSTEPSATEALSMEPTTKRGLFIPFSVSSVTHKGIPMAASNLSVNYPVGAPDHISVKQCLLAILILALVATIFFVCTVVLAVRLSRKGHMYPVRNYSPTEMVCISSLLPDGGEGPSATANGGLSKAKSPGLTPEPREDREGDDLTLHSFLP"}, "[2]": {"target": "human tryptophanyl-tRNA synthetase (hWARS) on cells (human) (UniProt P23381)", "sequence (P23381 2-471)": "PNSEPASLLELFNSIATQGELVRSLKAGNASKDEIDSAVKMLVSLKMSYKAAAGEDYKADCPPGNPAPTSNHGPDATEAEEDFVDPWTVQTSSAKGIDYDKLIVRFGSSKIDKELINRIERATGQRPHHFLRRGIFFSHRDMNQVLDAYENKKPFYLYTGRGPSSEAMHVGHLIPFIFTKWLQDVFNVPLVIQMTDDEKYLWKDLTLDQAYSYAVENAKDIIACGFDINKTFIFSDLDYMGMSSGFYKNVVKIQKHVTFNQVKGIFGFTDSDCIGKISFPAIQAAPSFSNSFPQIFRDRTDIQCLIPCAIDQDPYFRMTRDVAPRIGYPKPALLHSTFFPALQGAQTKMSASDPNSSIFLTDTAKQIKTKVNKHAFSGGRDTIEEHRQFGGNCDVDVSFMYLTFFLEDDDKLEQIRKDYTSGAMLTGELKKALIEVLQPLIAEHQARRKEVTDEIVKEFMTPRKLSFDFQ"}, "[3]": {"target": "human scavenger receptor class B member 2 (hSCARB2) on L929 cells (human) (UniProt Q14108)", "sequence (Q14108 whole entry)": "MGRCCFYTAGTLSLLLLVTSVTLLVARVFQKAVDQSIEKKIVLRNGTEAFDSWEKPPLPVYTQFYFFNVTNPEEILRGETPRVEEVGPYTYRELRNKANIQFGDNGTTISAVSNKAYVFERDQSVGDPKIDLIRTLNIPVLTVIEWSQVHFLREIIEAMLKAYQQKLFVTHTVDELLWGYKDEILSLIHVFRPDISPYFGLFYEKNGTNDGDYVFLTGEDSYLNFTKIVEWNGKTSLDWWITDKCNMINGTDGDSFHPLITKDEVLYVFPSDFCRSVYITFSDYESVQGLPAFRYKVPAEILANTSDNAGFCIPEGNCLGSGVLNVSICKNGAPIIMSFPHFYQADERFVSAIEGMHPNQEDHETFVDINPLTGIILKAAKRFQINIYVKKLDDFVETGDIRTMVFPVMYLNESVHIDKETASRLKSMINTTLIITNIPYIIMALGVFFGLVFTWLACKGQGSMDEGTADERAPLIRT"}},
  "data": [
    {"substance": "enterovirus 71 (EV-A71) virus", "values": [
      {"measurement": "co-localization coefficient (R)", "setting": "[1]", "result": 0.501},
      {"measurement": "co-localization coefficient (R)", "setting": "[2]", "result": 0.655},
      {"measurement": "co-localization coefficient (R)", "setting": "[3]", "result": 0.432}
    ]}
  ]
}
